In assay [1] the target is T1, Human CD93 on cells (human CD93 expressing CHO cells; HUVEC, U937 and KG1a cells) (human, UniProt Q9NPY3 22-652).
T1 construct: whole, on cells; also called hCD93 expressing CHO cells; hCD93 CHO cells
T1 sequence (looked up): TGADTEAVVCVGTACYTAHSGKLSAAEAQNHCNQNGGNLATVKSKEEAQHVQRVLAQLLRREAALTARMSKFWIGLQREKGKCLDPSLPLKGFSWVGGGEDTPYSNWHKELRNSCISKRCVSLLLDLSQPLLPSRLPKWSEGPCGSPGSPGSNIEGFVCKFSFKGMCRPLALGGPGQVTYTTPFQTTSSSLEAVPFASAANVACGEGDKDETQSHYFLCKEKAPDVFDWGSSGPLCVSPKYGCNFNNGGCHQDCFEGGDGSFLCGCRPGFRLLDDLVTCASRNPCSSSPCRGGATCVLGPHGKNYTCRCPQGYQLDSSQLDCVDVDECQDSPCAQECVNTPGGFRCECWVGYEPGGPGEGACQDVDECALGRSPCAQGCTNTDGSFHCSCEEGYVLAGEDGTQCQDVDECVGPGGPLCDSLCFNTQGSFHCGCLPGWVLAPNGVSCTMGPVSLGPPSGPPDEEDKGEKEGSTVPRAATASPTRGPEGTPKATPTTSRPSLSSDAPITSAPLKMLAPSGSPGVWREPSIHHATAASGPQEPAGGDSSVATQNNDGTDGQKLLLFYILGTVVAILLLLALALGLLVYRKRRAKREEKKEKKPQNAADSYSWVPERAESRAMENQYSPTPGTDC
The assay can be described thus: flow cytometry blocking assay, HUVEC cells; blocked ligand hIGFBP7-His 0.1 ug/ml; blocking activity runs from about 46 to about 72 % of control. As to the method:
After washing with FACS buffer twice, the samples were analyzed and data acquired in NovoCyte Flow.

The target in assay [2] is T1, Human CD93 on cells (human CD93 …). Kind of assay: flow cytometry blocking assay, CHO-hCD93 cells; blocked ligand hMMRN2 495-674 at 0.1 ug/ml; antibody stored 4 weeks at 40 C. As for the experimental part: Then the cells were incubated with hMMRN2₄₉₅₋₆₇₄ at 0.1 μg/ml. […] After washing with FACS buffer twice, the samples were analyzed, and data acquired in NovoCyte Flow. Recombinant his tagged hMMRN2₄₉₅₋₆₇₄ was produced internally in E. Coli following routine procedure.
(In general: Flow cytometry measures light scatter and fluorescence of single cells or particles in a stream.)

The target is the same in assay [3]. The assay can be described thus: flow cytometry titration, HUVEC cells; antibody stored 4 weeks at 40 C; unit printed as nMM. As to the method:
HUVEC cells were detached by incubation with TrypLE reagents (Thermo Fisher), which preserves the integrity of CD93 on the cell surface. Then the cells were incubated with serial diluted anti-CD93 antibodies for 30 minutes at 4° C. After washing by FACS buffer, the cells were incubated with Alexa Fluor 647 conjugated anti-human IgG (Jackson ImmunoResearch) for 30 minutes in 4° C. After washing by FACS buffer twice, the samples were acquired in NovoCyte Flow Cytometer and analyzed by NovoExpress software.

Assay [4] has the same target. The assay can be described thus: flow cytometry blocking assay, CHO-hCD93 cells, antibody 50 ug/ml then MMRN2 0.1 ug/ml, APC-A. As for the experimental part:
After incubation, the cells were washed with FACS buffer and incubated with anti-His conjugated APC or streptavidin conjugated APC at a ratio of 1:500 for 30 minutes at 4° C. After washing with FACS buffer twice, the samples were analyzed and data acquired in NovoCyte Flow.

Assay [5] has the same target. Kind of assay: flow cytometry blocking assay, CHO-hCD93 cells; blocked ligand hMMRN2 495-674 at 0.1 ug/ml; blocking activity is 0 up to about 10 ug/ml and appears only at the two highest points. As for the experimental part:
Then the cells were incubated with hMMRN2₄₉₅₋₆₇₄ at 0.1 μg/ml. […] Then the cells were washed with FACS buffer and incubated with APC-conjugated anti-His tag antibody at 1 μg/ml for 30 minutes at 4° C. After washing with FACS buffer twice, the samples were analyzed and data acquired in NovoCyte Flow. Recombinant his tagged […] was produced internally in Expi_HEK following routine procedure.

Assay [6] concerns the target T2, Human CD93 recombinant protein (Sino Biological Inc, Catalog #12589-H08H) (human, UniProt Q9NPY3 22-580).
T2 construct: Biotinylated (EZ-LINK NHS-PEG4 biotin) in the BLI assays; also called hCD93; His-tagged human CD93
T2 sequence (looked up): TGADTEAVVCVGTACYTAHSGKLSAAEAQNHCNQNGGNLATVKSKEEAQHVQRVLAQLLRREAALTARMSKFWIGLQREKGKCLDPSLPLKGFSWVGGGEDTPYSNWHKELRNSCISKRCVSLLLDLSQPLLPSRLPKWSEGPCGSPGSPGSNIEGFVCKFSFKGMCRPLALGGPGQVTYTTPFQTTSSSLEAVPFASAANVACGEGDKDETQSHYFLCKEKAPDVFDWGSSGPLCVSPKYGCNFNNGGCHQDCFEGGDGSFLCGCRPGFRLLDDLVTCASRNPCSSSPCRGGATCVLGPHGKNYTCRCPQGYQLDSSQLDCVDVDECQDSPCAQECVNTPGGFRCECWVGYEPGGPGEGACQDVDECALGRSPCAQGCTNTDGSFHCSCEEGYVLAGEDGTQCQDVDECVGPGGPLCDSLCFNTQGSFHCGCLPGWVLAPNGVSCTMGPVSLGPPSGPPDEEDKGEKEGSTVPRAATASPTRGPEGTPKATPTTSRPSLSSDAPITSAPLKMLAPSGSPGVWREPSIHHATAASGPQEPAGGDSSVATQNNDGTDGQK
The assay can be described thus: BLI (Octet QKe), biotinylated human CD93 on streptavidin biosensors. As to the method:
The binding affinity of anti-CD93 antibodies was determined with bio-layer interferometry using Octet QKe (Fortebio). […] Human CD93 recombinant protein (Sino Biological Inc, Catalog #12589-H08H) was biotinylated using EZ-LINK NHS-PEG4 biotin (Thermo Fisher Scientific). Streptavidin biosensors (Fortebio) were used to load biotinylated CD93 protein (300 seconds in 5 μg/ml). Baseline was stabilized for 60 seconds in 1× kinetics buffer (Fortebio) before anti-CD93 antibodies, at a serial dilution, were allowed to associate for 300 seconds with captured protein. Then the sensors were dissociated in 1× kinetics buffer for 600 seconds. […] (FIG. 42).
For orientation: Biolayer interferometry detects binding as a change in optical thickness at a sensor tip.

B1: h7F3 (humanized 7F3, VH3+VL3) (antibody, human IgG1, V domains shown)
VH: QVQLVQSGAEVKKPGASVKVSCKASGYTFTDYEMHWVRQAPGQGLEWMGGIDPETGDTAYNQNFKGRVTMTTDTSTSTAYMELRSLTSDDTAVYYCTNYGNLYYYAMDYWGQGTSVTVSS
VL: EIVLTQSPSSLSASVGDRVTITCRASSSVSSSYLHWYQQKPGKAPKLLIYSTSNLAFGVPSRFSGSGSGTSYTFTISSLQPEDIATYYCQQYSGYPLTFGSGTKLEIK
notes: also called humanized 7F3-hIgG1
Turning to B1, the concentration for half-maximal inhibition (IC50) (in general, the point on the concentration scale where inhibition reaches its midpoint) in assay [1] is 1 nM; in assay [2], 0.153 nM. For the same molecule, the EC50 (as a rule, the concentration giving half of the maximal effect) in assay [3] is 1.12 nM.

B2: 16E4 (hybridoma) (antibody, IgG2a, V domains shown)
VH: QVQLQQPGAELVKPGASVKLSCKASGYTFTSYWMHWVKQRPGQGLEWIGEIDPSASYTYYNQKFKGKATLTVDKSSSTAYMQLSSLTSEDSAVYYCARSVYYGNKYFDVWGAGTTVTVSS
VL: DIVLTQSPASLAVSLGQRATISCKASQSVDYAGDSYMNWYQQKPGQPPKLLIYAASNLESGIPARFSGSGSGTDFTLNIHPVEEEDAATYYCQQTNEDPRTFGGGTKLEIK
notes: also called 16E4 mAb; 16E4 mIgG2a
For the molecule B2, the “M3 gate, % of cells positive for MMRN2 after the antibody” value in assay [4] is 37.7%.

B3: h16E4 (humanized 16E4, VH4+VL6) (antibody, V domains shown)
VH: QVQLVQSGAEVKKPGASVKVSCKASGYTFTSYWMHWVRQAPGQGLEWMGEIDPSASYTYYNQKFKGRVTMTRDKSSSTVYMELSSLTSEDSAVYYCARSVYYGNKYFDVWGAGTTVTVSS
VL: DIQMTQSPSTLSASVGDRVTITCKASQSVDYAGDSYMNWYQQKPGKAPKLLIYAASNLESGVPSRFSGSGSGTEFTLTISSLQPDDFATYYCQQTNEDPRTFGGGTKLEIK
notes: Detected with anti-human IgG, so a human Fc
B3 registered an IC50 in assay [5] of 225 nM. In assay [6], the dissociation constant Kd (commonly the constant that tells how readily two partners part at equilibrium) is 0.416 nM; the dissociation rate constant (koff) (as a rule, the rate constant with which the complex falls apart) was 0.000104 s⁻¹; the kon (in general, a measure of how fast the partners come together) was 249000 M⁻¹ s⁻¹.

Values taken from patent publication US20230365705A1 (DYNAMICURE BIOTECHNOLOGY, published 2023).
